According to US20240294593A1 (Genentech, published 2024):

Columns and labels:
[1] = molecular target: T1, human PD-1-His (human, UniProt Q15116 25-167, limits assumed); experiment: Octet
T1 construct: Antigen of the Octet assays; not shown: His tag

[2] = molecular target: T1, human PD-1-His; experiment: Octet [D00120 Figure 65H]
Description: In particular, anti-human IgG-Fc (AHC) biosensors were used to capture the test articles and dipped into multiple concentrations of PD-1.

T1 sequence (Q15116 25-167 limits assumed): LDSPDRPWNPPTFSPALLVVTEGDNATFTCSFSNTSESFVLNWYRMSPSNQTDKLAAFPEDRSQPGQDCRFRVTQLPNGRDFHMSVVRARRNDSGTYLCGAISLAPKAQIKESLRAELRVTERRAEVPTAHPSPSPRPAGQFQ

Binder | Kd [1] [nM] | koff [1] [s⁻¹] | kon [1] [M⁻¹ s⁻¹] | Kd [2] [nM] | koff [2] [s⁻¹] | kon [2] [M⁻¹ s⁻¹]
H1.151_L1 (antibody, V domains shown, also called VH-W112F; Kabat 100) VH: EVQLVESGGGLVQPGGSLRLSCAASGFTFSSFGMHWVRQAPGKGLEWVSYISSGSSIIYYADSVKGRFTISRDNAKNSLYLQMNSLRAEDTAVYYCARGGRLVFSPDYWGQGTLVTVSS VL: DIVMTQSPDSLAVSLGERATINCKSSQSLLNSGNQKNYLTWYQQKPGQPPKLLIYWASTRESGVPDRFTGSGSGTDFTLTISSLQAEDVAVYYCQNDYSYPFTFGSGTKLEIKR | 309 | 0.087 | 282000 | – | – | –
H1_L1.77 (antibody, V domains shown, also called VL-T59A; Kabat 53) VH: EVQLVESGGGLVQPGGSLRLSCAASGFTFSSFGMHWVRQAPGKGLEWVSYISSGSSIIYYADSVKGRFTISRDNAKNSLYLQMNSLRAEDTAVYYCARGGRLVWSPDYWGQGTLVTVSS VL: DIVMTQSPDSLAVSLGERATINCKSSQSLLNSGNQKNYLTWYQQKPGQPPKLLIYWASARESGVPDRFTGSGSGTDFTLTISSLQAEDVAVYYCQNDYSYPFTFGSGTKLEIKR | – | – | – | 50.3 | 0.00535 | 106000
H1_L1.78 (antibody, V domains shown, also called VL-T59I; Kabat 53) VH: EVQLVESGGGLVQPGGSLRLSCAASGFTFSSFGMHWVRQAPGKGLEWVSYISSGSSIIYYADSVKGRFTISRDNAKNSLYLQMNSLRAEDTAVYYCARGGRLVWSPDYWGQGTLVTVSS VL: DIVMTQSPDSLAVSLGERATINCKSSQSLLNSGNQKNYLTWYQQKPGQPPKLLIYWASIRESGVPDRFTGSGSGTDFTLTISSLQAEDVAVYYCQNDYSYPFTFGSGTKLEIKR | – | – | – | 56.8 | 0.00581 | 102000
H1_L1.79 (antibody, V domains shown, also called VL-T59Q; Kabat 53) VH: EVQLVESGGGLVQPGGSLRLSCAASGFTFSSFGMHWVRQAPGKGLEWVSYISSGSSIIYYADSVKGRFTISRDNAKNSLYLQMNSLRAEDTAVYYCARGGRLVWSPDYWGQGTLVTVSS VL: DIVMTQSPDSLAVSLGERATINCKSSQSLLNSGNQKNYLTWYQQKPGQPPKLLIYWASQRESGVPDRFTGSGSGTDFTLTISSLQAEDVAVYYCQNDYSYPFTFGSGTKLEIKR | – | – | – | 55.5 | 0.00731 | 132000
H1_L1.80 (antibody, V domains shown, also called VL-T59H; Kabat 53) VH: EVQLVESGGGLVQPGGSLRLSCAASGFTFSSFGMHWVRQAPGKGLEWVSYISSGSSIIYYADSVKGRFTISRDNAKNSLYLQMNSLRAEDTAVYYCARGGRLVWSPDYWGQGTLVTVSS VL: DIVMTQSPDSLAVSLGERATINCKSSQSLLNSGNQKNYLTWYQQKPGQPPKLLIYWASHRESGVPDRFTGSGSGTDFTLTISSLQAEDVAVYYCQNDYSYPFTFGSGTKLEIKR | – | – | – | 51 | 0.00578 | 113000
H1_L1.81 (antibody, V domains shown, also called VL-T59D; Kabat 53) VH: EVQLVESGGGLVQPGGSLRLSCAASGFTFSSFGMHWVRQAPGKGLEWVSYISSGSSIIYYADSVKGRFTISRDNAKNSLYLQMNSLRAEDTAVYYCARGGRLVWSPDYWGQGTLVTVSS VL: DIVMTQSPDSLAVSLGERATINCKSSQSLLNSGNQKNYLTWYQQKPGQPPKLLIYWASDRESGVPDRFTGSGSGTDFTLTISSLQAEDVAVYYCQNDYSYPFTFGSGTKLEIKR | – | – | – | 51.4 | 0.00606 | 118000
H1_L1.82 (antibody, V domains shown, also called VL-T59K; Kabat 53) VH: EVQLVESGGGLVQPGGSLRLSCAASGFTFSSFGMHWVRQAPGKGLEWVSYISSGSSIIYYADSVKGRFTISRDNAKNSLYLQMNSLRAEDTAVYYCARGGRLVWSPDYWGQGTLVTVSS VL: DIVMTQSPDSLAVSLGERATINCKSSQSLLNSGNQKNYLTWYQQKPGQPPKLLIYWASKRESGVPDRFTGSGSGTDFTLTISSLQAEDVAVYYCQNDYSYPFTFGSGTKLEIKR | – | – | – | 52.6 | 0.00602 | 114000
H1_L1.83 (antibody, V domains shown, also called VL-T59Y; Kabat 53) VH: EVQLVESGGGLVQPGGSLRLSCAASGFTFSSFGMHWVRQAPGKGLEWVSYISSGSSIIYYADSVKGRFTISRDNAKNSLYLQMNSLRAEDTAVYYCARGGRLVWSPDYWGQGTLVTVSS VL: DIVMTQSPDSLAVSLGERATINCKSSQSLLNSGNQKNYLTWYQQKPGQPPKLLIYWASYRESGVPDRFTGSGSGTDFTLTISSLQAEDVAVYYCQNDYSYPFTFGSGTKLEIKR | – | – | – | 64.3 | 0.00603 | 93800
H1_L1.84 (antibody, V domains shown, also called VL-E61Q; Kabat 55) VH: EVQLVESGGGLVQPGGSLRLSCAASGFTFSSFGMHWVRQAPGKGLEWVSYISSGSSIIYYADSVKGRFTISRDNAKNSLYLQMNSLRAEDTAVYYCARGGRLVWSPDYWGQGTLVTVSS VL: DIVMTQSPDSLAVSLGERATINCKSSQSLLNSGNQKNYLTWYQQKPGQPPKLLIYWASTRQSGVPDRFTGSGSGTDFTLTISSLQAEDVAVYYCQNDYSYPFTFGSGTKLEIKR | – | – | – | 46 | 0.00478 | 104000
H1_L1.85 (antibody, V domains shown, also called VL-E61K; Kabat 55) VH: EVQLVESGGGLVQPGGSLRLSCAASGFTFSSFGMHWVRQAPGKGLEWVSYISSGSSIIYYADSVKGRFTISRDNAKNSLYLQMNSLRAEDTAVYYCARGGRLVWSPDYWGQGTLVTVSS VL: DIVMTQSPDSLAVSLGERATINCKSSQSLLNSGNQKNYLTWYQQKPGQPPKLLIYWASTRKSGVPDRFTGSGSGTDFTLTISSLQAEDVAVYYCQNDYSYPFTFGSGTKLEIKR | – | – | – | 31.8 | 0.00316 | 99400
H1_L1.86 (antibody, V domains shown, also called VL-E61S; Kabat 55) VH: EVQLVESGGGLVQPGGSLRLSCAASGFTFSSFGMHWVRQAPGKGLEWVSYISSGSSIIYYADSVKGRFTISRDNAKNSLYLQMNSLRAEDTAVYYCARGGRLVWSPDYWGQGTLVTVSS VL: DIVMTQSPDSLAVSLGERATINCKSSQSLLNSGNQKNYLTWYQQKPGQPPKLLIYWASTRSSGVPDRFTGSGSGTDFTLTISSLQAEDVAVYYCQNDYSYPFTFGSGTKLEIKR | – | – | – | 40.6 | 0.0047 | 116000
H1_L1.87 (antibody, V domains shown, also called VL-E61H; Kabat 55) VH: EVQLVESGGGLVQPGGSLRLSCAASGFTFSSFGMHWVRQAPGKGLEWVSYISSGSSIIYYADSVKGRFTISRDNAKNSLYLQMNSLRAEDTAVYYCARGGRLVWSPDYWGQGTLVTVSS VL: DIVMTQSPDSLAVSLGERATINCKSSQSLLNSGNQKNYLTWYQQKPGQPPKLLIYWASTRHSGVPDRFTGSGSGTDFTLTISSLQAEDVAVYYCQNDYSYPFTFGSGTKLEIKR | – | – | – | 50.9 | 0.00552 | 109000
H1_L1.88 (antibody, V domains shown, also called VL-E61A; Kabat 55) VH: EVQLVESGGGLVQPGGSLRLSCAASGFTFSSFGMHWVRQAPGKGLEWVSYISSGSSIIYYADSVKGRFTISRDNAKNSLYLQMNSLRAEDTAVYYCARGGRLVWSPDYWGQGTLVTVSS VL: DIVMTQSPDSLAVSLGERATINCKSSQSLLNSGNQKNYLTWYQQKPGQPPKLLIYWASTRASGVPDRFTGSGSGTDFTLTISSLQAEDVAVYYCQNDYSYPFTFGSGTKLEIKR | – | – | – | 43.3 | 0.00411 | 95000
H1_L1.89 (antibody, V domains shown, also called VL-E61G; Kabat 55) VH: EVQLVESGGGLVQPGGSLRLSCAASGFTFSSFGMHWVRQAPGKGLEWVSYISSGSSIIYYADSVKGRFTISRDNAKNSLYLQMNSLRAEDTAVYYCARGGRLVWSPDYWGQGTLVTVSS VL: DIVMTQSPDSLAVSLGERATINCKSSQSLLNSGNQKNYLTWYQQKPGQPPKLLIYWASTRGSGVPDRFTGSGSGTDFTLTISSLQAEDVAVYYCQNDYSYPFTFGSGTKLEIKR | – | – | – | 43.9 | 0.00403 | 91900
